Data taken from patent US20230295316A1 (FRED HUTCHINSON CANCER CENTER, published 2023).
Blank lines part the entries; values can stand above or below the binder they belong to.

Key:
[1] = target: T1, human interleukin-3 (IL-3) receptor alpha-chain (CD123), on cells (human, UniProt P26951 19-378); assay: flow cytometry (PE-A), 2 µg/mL by the legend (hybridoma supernatants by paragraph 203) + labeled secondary antibody, parental MOLM-13 cells against MOLM-13 CD123KO
T1 construct: whole, on cells; also called human CD123

[2] = target: T2, Hs_CD123_6His-Avi (CD123 ECD-His-Avi fusion protein) (human, UniProt P26951 19-303); assay: SPR (Biacore T-100), univalent affinity; antibody captured on the CM4 chip, human CD123 ECD as analyte
T2 construct: The signal peptide is marked only by bold type, so its limits cannot be read here and were not guessed; also called His-Avi tagged peptide encompassing the ECD of human CD123
T2 sequence: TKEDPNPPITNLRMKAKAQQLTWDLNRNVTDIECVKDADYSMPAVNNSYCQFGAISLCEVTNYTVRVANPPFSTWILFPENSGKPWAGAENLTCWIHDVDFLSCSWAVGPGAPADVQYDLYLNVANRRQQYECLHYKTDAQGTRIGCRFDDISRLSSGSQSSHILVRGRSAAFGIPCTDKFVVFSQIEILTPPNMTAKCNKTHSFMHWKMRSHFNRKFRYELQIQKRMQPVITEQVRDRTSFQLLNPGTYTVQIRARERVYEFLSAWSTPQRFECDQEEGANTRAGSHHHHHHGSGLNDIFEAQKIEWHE
Method: FIGS. 21A-21B. Surface plasmon resonance (Biacore T-100) analyses were performed to rigorously/precisely determine univalent binding affinities of recombinant, fully human versions of the anti-human CD123 monoclonal antibodies 1B5, 1D9, and 1E3, using human IgG1 (FIG. 21A) and human IgG4 frameworks (FIG. 21B). For these experiments, a peptide encoding the complete extracellular portion of human CD123 was used, and the antibodies were captured on the biosensor chip (CM4) via a Fc gamma-specific goat anti-human IgG and amine coupling.

[3] = target: T1, human interleukin-3 (IL-3) receptor …; assay: flow cytometry (APC-A), unmodified mAb + secondary antibody, RS4;11 cells overexpressing human CD123 [CONT.]
Excerpt: (§1) FIG. 4. Parental CD123-negative human RS4;11 ALL cells and RS4;11 cells engineered to overexpress human CD123 were used for flow cytometric phenotyping of a series of anti-CD123 mAbs (11F11, 5G4, 10C4, 1H8) that were either left unmodified or were reacted with 5, 10, or 15 equivalents of B10. A secondary mAb-only control is also shown.

[4] = target: T1, human interleukin-3 (IL-3) receptor …; assay: flow cytometry (APC-A), mAb reacted with 5, 10 or 15 equivalents of B10 + secondary antibody, RS4;11 cells overexpressing human CD123 [CONT.]
Excerpt: as §1

[5] = target: T1, human interleukin-3 (IL-3) receptor …; assay: flow cytometry (PE-Cy7-A), mAb + labeled secondary antibody, RS4;11 cells transduced with human CD123

B1: 123-ATX1B2 (Human anti-CD123 antibody from ATX-GX mouse, Kappa Light Chain) (antibody, V domains shown)
VH: QVQLVQSGAEVKKPGASVEVSCKASGYTFTGYYIHWVRQAPGQGLEWMGWINPNSGGTNYAQKFQGRVTMTWDTSISTAFMELSRLRSDDTAVYSCARDRGGPYFDYWGQGTLVIVSS
VL: DIQMTQSPSSLSASVGDRVTITCQASQDITNYLNWYQQKPGKAPKLQIYDASNLETGVPSRFSGSGSGTDFTFTISSLQPEDIATYYCQQHDDLPLTFGGGTKVEIK
binding result [1]: binds

B2: 123-ATX1D9, fully human recombinant antibody, human IgG1 framework (antibody)
heavy: not shown
light: QSALTQPPSASGSPGQSVTISCTGTSSDVGGYNYVSWYQQHPGKAPKIMIYEVNKRPAGVPDRFSGSKSGNTASLTVSGLQAEDEAHYYCNSYTDSNNLIFGGGTKLTVLGQPKANPTVTLFPPSSEELQANKATLVCLISDFYPGAVTVAWKADGSPVKAGVETTKPSKQSNNKYAASSYLSLTPEQWKSHRSYSCQVTHEGSTVEKTVAPTECS
notes: Lambda light chain; also called 1D9 (human IgG1)
Kd [2]: 0.563 nM
koff [2]: 3.68e-05 s⁻¹
kon [2]: 65500 M⁻¹ s⁻¹

B3: 123-ATX1D9, fully human recombinant antibody, human IgG4 framework (antibody)
heavy: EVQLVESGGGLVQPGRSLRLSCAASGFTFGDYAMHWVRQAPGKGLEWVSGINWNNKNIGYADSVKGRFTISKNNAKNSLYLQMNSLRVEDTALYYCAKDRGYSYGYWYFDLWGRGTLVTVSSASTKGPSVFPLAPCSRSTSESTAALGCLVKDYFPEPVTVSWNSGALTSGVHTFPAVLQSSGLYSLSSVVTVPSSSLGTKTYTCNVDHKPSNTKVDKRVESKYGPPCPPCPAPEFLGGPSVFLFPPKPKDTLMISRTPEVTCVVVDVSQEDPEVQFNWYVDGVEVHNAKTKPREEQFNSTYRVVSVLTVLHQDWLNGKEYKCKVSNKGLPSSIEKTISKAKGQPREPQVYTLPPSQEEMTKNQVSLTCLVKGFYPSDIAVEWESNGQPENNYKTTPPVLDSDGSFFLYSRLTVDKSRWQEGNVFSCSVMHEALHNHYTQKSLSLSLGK
light: QSALTQPPSASGSPGQSVTISCTGTSSDVGGYNYVSWYQQHPGKAPKIMIYEVNKRPAGVPDRFSGSKSGNTASLTVSGLQAEDEAHYYCNSYTDSNNLIFGGGTKLTVLGQPKANPTVTLFPPSSEELQANKATLVCLISDFYPGAVTVAWKADGSPVKAGVETTKPSKQSNNKYAASSYLSLTPEQWKSHRSYSCQVTHEGSTVEKTVAPTECS
notes: Lambda light chain; also called 1D9 (human IgG4)
Kd [2]: 0.594 nM
koff [2]: 4.19e-05 s⁻¹
kon [2]: 70600 M⁻¹ s⁻¹

B4: 123-1H8 (murine anti-CD123 antibody, IgG1 isotype, Kappa Light Chain) (antibody, V domains shown)
VH: EVKLVESEGGLVQPGSSMKLSCTASGFTFSDYYMAWVRQVPEKGLEWVANIDDEGSSTYYLDSLKSRFIISRDNAKNILYLQMTSLKSEDTATYYCARGTTQTSFFVHWGQGTLVTVSA
VL: DIVLTQSPASLAVSLGQRATISCRASQSVSSSSYSFMHWYQKKPRQPPKLLIKYASTLEAGVPARFSGSGSGTDFTLNIHPVEEEDTATYYCQHSWEIPYTFGGGTKLEIK
notes: murine IgG1, kappa
binding result [3]: binds

B5: 1H8 reacted with B10 (antibody, V domains shown)
VH: EVKLVESEGGLVQPGSSMKLSCTASGFTFSDYYMAWVRQVPEKGLEWVANIDDEGSSTYYLDSLKSRFIISRDNAKNILYLQMTSLKSEDTATYYCARGTTQTSFFVHWGQGTLVTVSA
VL: DIVLTQSPASLAVSLGQRATISCRASQSVSSSSYSFMHWYQKKPRQPPKLLIKYASTLEAGVPARFSGSGSGTDFTLNIHPVEEEDTATYYCQHSWEIPYTFGGGTKLEIK
modifications: B10 on lysine amines, positions not given; B10 (isothiocyantophenethyl-ureido-closo-decaborate(2-)) on lysine amines, positions not given
notes: also called B10-conjugated 1H8
binding result [4]: binds

B6: 11F11 reacted with B10 (antibody, V domains shown)
VH: EVTLVESGGGLEQPGGSLSLSCAASGFTFTDYYMSWVRQPPGKALEWLALIRNKANGYTTEYSASVKGRFTISRDNSQSILYLQMNALRAEDSATYYCARQVRNYYGYEEDALDYWGQGTSVTVSS
VL: DIVLTQSPASLAVSLGQRATISCRASESLDFYGNSFMHWYQQKSGQPPKLLISRASNLESGIPPRFSGSGSRTDFTLTIDPVEADDVATYYCQQSYEDPYTFGGGTKLEIK
modifications: B10 on lysine amines, positions not given; B10 (isothiocyantophenethyl-ureido-closo-decaborate(2-)) on lysine amines, positions not given
notes: also called B10-conjugated 11F11
binding result [4]: binds

B7: 123-ATX1B7 (Human anti-CD123 antibody from ATX-GX mouse, Kappa Light Chain) (antibody, V domains shown)
VH: QVQLVQSGAEVKKPGASVKVSCKASGYTFTSFGLTWVRQAPGQGLEWMGWFNAYSGKTYYAPTLQDRVTMTTDPSTSTAYMELMSLTSDDTAIYYCARDLVFDYWGQGTLVTVSS
VL: EIVLTQSPGTLSLSPGERATLSCRASQSFSDRYLAWYQQKPGQAPRLLIYGTSSRATGIPDRFSGSGSGTDFTLTISRLESEDSAVYYCQQYGRSPFTFGPGTKVDIK
binding result [1]: binds

B11: 123-ATX1E3, fully human recombinant antibody, human IgG1 framework (antibody)
heavy: not shown
light: EIVLMQSPGTLSLSPGERVTLSCRASQTFSSSYLAWYQQKPGQAPRLLIYGASSRATGIPDRFSGSGSGTDFTLTINRLEPEDFAVYYCQQYGRSPFTFGPGTKLDIKRTVAAPSVFIFPPSDEQLKSGTASVVCLLNNFYPREAKVQWKVDNALQSGNSQESVTEQDSKDSTYSLSSTLTLSKADYEKHKVYACEVTHQGLSSPVTKSFNRGEC
notes: also called 1E3 (human IgG1)
Kd [2]: 0.652 nM
koff [2]: 6.15e-05 s⁻¹
kon [2]: 94400 M⁻¹ s⁻¹

B12: 123-ATX1E3, fully human recombinant antibody, human IgG4 framework (antibody)
heavy: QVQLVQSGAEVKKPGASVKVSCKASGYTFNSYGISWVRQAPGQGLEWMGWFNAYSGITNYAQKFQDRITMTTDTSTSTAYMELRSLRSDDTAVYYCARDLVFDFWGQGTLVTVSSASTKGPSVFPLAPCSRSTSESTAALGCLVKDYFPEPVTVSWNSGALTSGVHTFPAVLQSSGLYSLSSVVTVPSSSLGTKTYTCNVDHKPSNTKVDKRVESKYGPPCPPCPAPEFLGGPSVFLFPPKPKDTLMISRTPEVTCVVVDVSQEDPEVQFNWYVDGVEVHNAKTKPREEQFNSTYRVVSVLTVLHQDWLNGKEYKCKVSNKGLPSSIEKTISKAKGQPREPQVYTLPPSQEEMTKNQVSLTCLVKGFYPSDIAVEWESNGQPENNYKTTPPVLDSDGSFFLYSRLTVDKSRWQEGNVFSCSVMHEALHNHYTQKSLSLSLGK
light: EIVLMQSPGTLSLSPGERVTLSCRASQTFSSSYLAWYQQKPGQAPRLLIYGASSRATGIPDRFSGSGSGTDFTLTINRLEPEDFAVYYCQQYGRSPFTFGPGTKLDIKRTVAAPSVFIFPPSDEQLKSGTASVVCLLNNFYPREAKVQWKVDNALQSGNSQESVTEQDSKDSTYSLSSTLTLSKADYEKHKVYACEVTHQGLSSPVTKSFNRGEC
notes: also called 1E3 (human IgG4)
Kd [2]: 0.792 nM
koff [2]: 7.02e-05 s⁻¹
kon [2]: 88600 M⁻¹ s⁻¹

Other lines, results leading:

binding result [1]: binds
B8: 123-ATX1E5 (Human anti-CD123 antibody from ATX-GX mouse, Kappa Light Chain) (antibody, V domains shown)
VH: QVQLVQSGAEVKKPGASVKVSCKASGYTFTSFGISWVRQAPGQGLEWMGWFNAYSGNTYYAPTLQDRVTMTTDTSTSTAYMELMSLRSDDTAIYYCARDLVFDYWGQGTLVTVSS
VL: EIVLTQSPGTLSLSPGERATLSCRASQSFSDRYLAWYQQKPGQAPRLLIYGTFSRATGIPDRFSGSGSGTDFTLTISRLDSEDFAVYYCQQYGSSPFTFGPGTKVDIK

binding result [4]: binds
B9: 10C4-B10 (B10-conjugated 10C4 anti-CD123 mAb) (antibody, V domains shown)
VH: QVQLKESGPGLVAPSQNLSITCTVSGFSLTTYDINWIRQPPGKGLEWLGVIWTGGGTNYNSAFMSRLSISKDNSKSQVFLKMNSLQTDDTAMYYCVRGDTYHYALDFWGQGTSVTVSS
VL: DIVMSQSPSSLAVSAGEKVTMSCKSSQSLLSSGTRKNYLAWYQQKPGQSPKLLIYWASTRESGVPDRFTGSGSGTDFTLTISSVQAEDLAVYYCKQSYILFTFGSGTKLEIK
modifications: B10 on lysine amines, positions not given; B10 (isothiocyantophenethyl-ureido-closo-decaborate(2-)) on lysine amines, positions not given

binding result [1]: binds
B10: 123-ATX1F2 (Human anti-CD123 antibody from ATX-GX mouse, Kappa Light Chain) (antibody, V domains shown)
VH: QVQLVQSGAEVKKPGASVKVSCKVSGYTLTEFSMHWVRQAPGKGLEWMGVFDPEHGATIYAQKFQGRVTMTEDTSTDTAYMDLSYLRSEDTAVYYCATYFDFWSGYSHFDFWGQGTLVTVSS
VL: DIQMTQSPSSLSASVGDRVTITCRASQGIRNDLGWYQQRPGKAPKRLIYAASSLQSGVPSRFSGSGSGTEFTLAISSLQPEDFATYSCLQHNSYPWTFGQGTKVEIK

binding result [3]: binds
B13: 123-5G4 (murine anti-CD123 antibody, IgG2a isotype, Kappa Light Chain) (antibody, V domains shown)
VH: DVQLQESGPGLVKPSQSLSLTCTVTGYSITSDYVWNWIRQFPGNKLEWMAYISYSGTTSYNPSLSSRISITRDTSSNQFFLQLNSVTSEDTATYYCARGLDYWGQGTSVTVSS
VL: QIVLTQSPAIMSVSLGERVTMTCTASSSVTSSYFHWYQQKPGSSPKLWIYSTSNLASGVPARFSGSGSGTSYSLTISSMEAEDAATYYCHQYHRSPRTFGGGTKLEIK
notes: murine IgG2a, kappa

binding result [4]: binds
B14: 5G4 reacted with B10 (antibody, V domains shown)
VH: DVQLQESGPGLVKPSQSLSLTCTVTGYSITSDYVWNWIRQFPGNKLEWMAYISYSGTTSYNPSLSSRISITRDTSSNQFFLQLNSVTSEDTATYYCARGLDYWGQGTSVTVSS
VL: QIVLTQSPAIMSVSLGERVTMTCTASSSVTSSYFHWYQQKPGSSPKLWIYSTSNLASGVPARFSGSGSGTSYSLTISSMEAEDAATYYCHQYHRSPRTFGGGTKLEIK
modifications: B10 on lysine amines, positions not given; B10 (isothiocyantophenethyl-ureido-closo-decaborate(2-)) on lysine amines, positions not given
notes: also called B10-conjugated 5G4

binding result [5]: binds
B15: 123-13E1 (murine anti-CD123 antibody, IgG2b isotype, Kappa Light Chain) (antibody, V domains shown)
VH: EVQLQQSGPELVKPGASVKISCKASGYTFTDHYMNWVKQSHGERLEWIGDIIPNNGGSTYSQKFKGKATLTVDKSSSTAYMELRSLTSEDSAVYYCARNGYYWYFDVWGTGTTVTVSS
VL: DIVLTQSPSSLAMSVGQKVTMSCKSSQSLLNSSNQKNYLAWYQQKPGQSPKLLVYFASTRESGVPDRFTGSGSGTDFTLTISTVQAEDLAFYYCHQHYSIPRTFGGGTKLEIT
notes: murine IgG2b, kappa

binding result [5]: binds
B16: 123-12A10 (murine anti-CD123 antibody, IgG2b isotype, Kappa Light Chain) (antibody, V domains shown)
VH: EVQLQQSGPELVKPGASVKISCKTSGYTFTDYYMNWVKQSHGKSLEWIGDIIPNNGGTSYHQKFKGKATLTVDKSSNTAYMELRSLTSEDSAVYYCARYGSSWFFDVWGTGTTVTVSS
VL: DIVMSQSPSSLAVSVGEKVTMSCKSSQSLLHSSNQKNYLAWYQQKPGQSPKLLIYWASTRESGVPDRFTGSGSGTDFTLTISSVKAEDLAVYYCQQYYSFPRTFGGGTKLEIK
notes: murine IgG2b, kappa

binding result [5]: binds
B17: 123-5C7 (murine anti-CD123 antibody, IgG2b isotype, Kappa Light Chain) (antibody, V domains shown)
VH: DVQLQESGPGLVKPSQSLSLTCSVTGYSITSSYYWNWIRQFPGNKLEWMGYISYDGSNNYNPSLKNRISITRDTSKTQFFLNLNSVTTEDTATYYCARGDGYYFDYWGQGTTLTVSS
VL: DFVMSQSPSSLAVSVGEKITINCKSSQSLFFGSTQKNYLAWYQQKPGQSPKLLIFWSSTRESGVPDRFTGSGSGTDFTLSINSVKAEDLAVYYCQQYYNYPWTFGGGTKLEIK
notes: murine IgG2b, kappa
